Experimental findings from patent US20240218060A1 are described below.

For one test, the target named is human neonatal Fc-receptor (FcRn) (human) (UniProt P55899). Description: FcRn affinity chromatography, bispecific KiH antibody.
Sequence of human neonatal Fc-receptor (FcRn) (human) (P55899 24-297 limits assumed, chain 1 of 2): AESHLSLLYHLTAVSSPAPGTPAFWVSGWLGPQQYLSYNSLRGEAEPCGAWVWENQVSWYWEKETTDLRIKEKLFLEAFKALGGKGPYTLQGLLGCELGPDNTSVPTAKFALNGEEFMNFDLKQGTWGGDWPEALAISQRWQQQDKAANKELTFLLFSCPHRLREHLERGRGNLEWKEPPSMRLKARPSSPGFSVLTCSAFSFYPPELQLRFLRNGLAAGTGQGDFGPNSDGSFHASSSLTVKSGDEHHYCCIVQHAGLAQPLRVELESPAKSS
Sequence of human neonatal Fc-receptor (FcRn) (human) (P61769 21-119 limits assumed, chain 2 of 2, further chain): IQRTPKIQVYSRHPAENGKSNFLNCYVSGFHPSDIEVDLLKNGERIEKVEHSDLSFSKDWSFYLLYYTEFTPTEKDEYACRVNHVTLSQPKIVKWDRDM
“bispecific antibody (knobs-into-holes), one chain with H310A”: the retention time on FcRn affinity column came out at 48.4 min.

“bispecific antibody (knobs-into-holes), one chain with H310A/H433A/Y436A” came in with a retention time on FcRn affinity column of 46.7 min.

“bispecific antibody (knobs-into-holes), one chain with H435A” came in with a retention time on FcRn affinity column of 48.8 min.

For “bispecific antibody (knobs-into-holes), one chain with I253A”, the retention time on FcRn affinity column was determined as 48.8 min.

“bispecific antibody (knobs-into-holes), one chain with L251D/L314D/L432D”: the retention time on FcRn affinity column was 46.3 min.

“bispecific antibody (knobs-into-holes), one chain with M252Y/S254T/T256E” yielded a retention time on FcRn affinity column of 56.2 min.

The target is the same in a further test. Put plainly: FcRn affinity chromatography of a knobs-into-holes bispecific antibody.
In turn, “bispecific antibody (knobs-into-holes), first chain I253A/H310A/H435A, second chain H310A” had an RT (Min) on the FcRn affinity column of 0 min.

Substance “bispecific antibody (knobs-into-holes), first chain I253A/H310A/H435A, second chain H435A” yielded an RT (Min) on the FcRn affinity column of 0 min.

Substance “bispecific antibody (knobs-into-holes), first chain I253A/H310A/H435A, second chain I253A/H310A/H435A” returned an RT (Min) on the FcRn affinity column of 0 min.

“bispecific antibody (knobs-into-holes), one chain with H310A” registered an RT (Min) on the FcRn affinity column of 48.4 min.

The substance “bispecific antibody (knobs-into-holes), one chain with H435A” came in with an RT (Min) on the FcRn affinity column of 48.8 min.

On to “bispecific antibody (knobs-into-holes), one chain with I253A”, for which the RT (Min) on the FcRn affinity column was determined as 48.8 min.

A further test shares this target. Put plainly: FcRn affinity chromatography.
Consider “IgG1 Fc-region molecule with L234A/L235A/P329G and Y436A (symmetric)”, for which the FcRn-affinity column retention time amounted to 41.3 min.

For the next test the target is unchanged. Description: FcRn affinity chromatography, anti-HER2 antibody.
The substance anti-HER2 antibody, symmetric E258H gave a retention time on FcRn affinity column of 45.6 min.

With anti-HER2 antibody, symmetric E430H, the retention time on FcRn affinity column was found to be 46.4 min.

As for anti-HER2 antibody, symmetric K288E, the retention time on FcRn affinity column was 45.2 min.

The substance anti-HER2 antibody, symmetric K290H showed a retention time on FcRn affinity column of 46.2 min.

In the case of anti-HER2 antibody, symmetric K317H, the retention time on FcRn affinity column was determined as 46.3 min.

With anti-HER2 antibody, symmetric L309H, the retention time on FcRn affinity column stood at 45.5 min.

The substance anti-HER2 antibody, symmetric N434H returned a retention time on FcRn affinity column of 52 min.

Consider anti-HER2 antibody, symmetric Q311H, for which the retention time on FcRn affinity column was found to be 46.3 min.

In turn, anti-HER2 antibody, symmetric R255D had a retention time on FcRn affinity column of 41.4 min.

Regarding anti-HER2 antibody, symmetric T256H, the retention time on FcRn affinity column is 46 min.

Turning to anti-HER2 antibody, wild-type, the retention time on FcRn affinity column is 46.3 min.
